# Experimental data published in US20100036106, “High-Affinity RNA Aptamer Molecule Against Glutathione-S-Transferase Protein” (NEC Soft, Ltd., published 2010).
# B1: No. 26 clone RNA aptamer with 5' poly(A) (ssRNA)
# RNA: GGUAGAUACGAUGGAUACCGAAAAAUUAGUGUCGUUGACUGCAACAUGACGCGCAGCCAA
# B2: No. 5 clone RNA aptamer with 5' poly(A) (ssRNA)
# RNA: GGUAGAUACGAUGGACUAACUGCGCAAAUUACUCGUAUUAGCCGACAUGACGCGCAGCCAA
# B3: No. 3 clone RNA aptamer with 5' poly(A) (ssRNA)
# RNA: GGUAGAUACGAUGGAUGGUUGUGUAAAGGUGGUCGUAUCCGCCGACAUGACGCGCAGCCAA
# Biological target: Glutathione S-transferase (GST) (Schistosoma japonicum, UniProt P08515 P08515:2-218)
# Sequence (P08515 2-218, one chain of several): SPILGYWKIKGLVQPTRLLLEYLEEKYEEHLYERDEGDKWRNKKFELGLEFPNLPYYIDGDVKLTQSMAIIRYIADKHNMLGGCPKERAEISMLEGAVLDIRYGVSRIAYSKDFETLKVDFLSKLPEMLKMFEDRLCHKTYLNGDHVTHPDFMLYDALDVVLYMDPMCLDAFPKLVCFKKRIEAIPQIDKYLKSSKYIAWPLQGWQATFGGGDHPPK
# Test: SPR; Kd fitted with BIA Evolution 3.1 but value only in figure; RNA immobilized via poly(A)/poly(dT)
# Conditions: chain copies: 2 inferred
# Excerpt: Synthetic biotinylated polydT (Hokkaido System Science) is allowed to bind to the surface of an SA BIACORE chip (Biacore). The single-stranded RNA molecules (RNA adaptor molecules) comprising polyA (Aₙ) added on the 5′-terminal side are annealed with the synthetic biotinylated polydT immobilized on the chip surface. As a result, the single-stranded RNA molecules (RNA adaptor molecules) are immobilized thereon via the hybrid bonding between the polydT and the polyA (Aₙ).
# This chip on which the single-stranded RNA molecules (RNA adaptor molecules) are immobilized is utilized to measure the process of formation of complexes of the single-stranded RNA molecules (RNA adaptor molecules) and GST proteins and the process of dissociation thereof by use of a surface plasmon resonance detection apparatus. The results are analyzed to determine the equilibrium dissociation constants of the complexes.
# Parameter fitting is conducted by use of BIA Evolution ver. 3.1 for the concentrations of the GST protein in the poured GST protein solutions and the time-dependent changes in signal intensity measured in this process, to thereby determine equilibrium dissociation constant KD.
row,Binder,binding result
1,B1,binds
2,B2,binds
3,B3,binds
